Results on one molecule are retold here after patent US20220064329A1 (Novo Nordisk, published 2022).

One assay deals with T1, FVII(a) WT (human, UniProt P08709 61-466).
T1 construct: also called wild type human FVII(a)
T1 sequence: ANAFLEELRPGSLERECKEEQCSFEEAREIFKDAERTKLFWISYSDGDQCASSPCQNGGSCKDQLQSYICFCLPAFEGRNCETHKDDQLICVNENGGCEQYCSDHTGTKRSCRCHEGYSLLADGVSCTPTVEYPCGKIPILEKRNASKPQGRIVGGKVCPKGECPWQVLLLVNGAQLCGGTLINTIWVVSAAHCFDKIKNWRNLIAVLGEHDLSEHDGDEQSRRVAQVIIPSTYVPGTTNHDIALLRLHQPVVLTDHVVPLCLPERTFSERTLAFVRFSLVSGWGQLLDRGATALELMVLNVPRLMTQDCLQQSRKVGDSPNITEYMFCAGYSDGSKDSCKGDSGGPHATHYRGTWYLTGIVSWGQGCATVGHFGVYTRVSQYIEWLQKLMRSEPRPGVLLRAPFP
Kind of assay: SPR, Biacore T200, 25 C; FVII(a) captured on anti-Gla Ab 4F6, mAb0842(OA) injected. On the procedure: (§1) The running buffer was prepared by diluting 10-fold the 10×HBS-P buffer (supplied by GE Healthcare) and supplemented with 1 mg/ml BSA and 5 mM CaCl2 to give 10 mM HEPES, 150 mM NaCl, 0.05% v/v Polysorbate 20, pH 7.4, 5 mM CaCl2, 1 mg/ml bovine serum albumin (BSA). […] Regeneration of the chip was achieved using 10 mM HEPES, 150 mM NaCl, 20 mM EDTA, 0.05 v/v Polysorbate 20, pH 7.4. Binding data were analysed according to a 1:1 Kinetic model and steady state analysis using BiaEvaluation 4.1 supplied by the manufacturer (Biacore AB, Uppsala, Sweden). Wherever possible, ka, kd and KD values from 1:1 kinetic fitting model are reported. […] An amino acid residue is considered a hot-spot residue if substitution of that amino acid residue with alanine results in an affinity reduction of ten (10) fold or more relative to the wild type.
(Surface plasmon resonance follows binding to a sensor surface in real time, without labels.)

The target in a further assay is T2, FVII(a) variant E265A (human, UniProt P08709 61-466).
T2 construct: hFVII alanine variant in cell culture supernatant
T2 sequence: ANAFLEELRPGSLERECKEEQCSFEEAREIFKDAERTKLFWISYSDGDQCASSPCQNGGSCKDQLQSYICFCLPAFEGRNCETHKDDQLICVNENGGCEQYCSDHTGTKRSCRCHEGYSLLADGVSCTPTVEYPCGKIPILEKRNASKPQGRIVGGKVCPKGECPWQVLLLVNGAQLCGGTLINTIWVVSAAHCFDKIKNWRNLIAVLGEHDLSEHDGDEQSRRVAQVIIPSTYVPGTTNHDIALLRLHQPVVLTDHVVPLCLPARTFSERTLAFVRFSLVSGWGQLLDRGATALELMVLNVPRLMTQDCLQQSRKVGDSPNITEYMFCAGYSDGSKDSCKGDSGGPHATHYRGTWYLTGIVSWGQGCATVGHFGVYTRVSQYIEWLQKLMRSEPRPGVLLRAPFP
Kind of assay: SPR, Biacore T200, 25 C; FVII(a) variant captured on anti-Gla Ab 4F6, mAb0842(OA) injected. On the procedure: as §1

The next assay addresses T3, FVII(a) variant E394A (human, UniProt P08709 61-466).
T3 construct: hFVII alanine variant in cell culture supernatant
T3 sequence: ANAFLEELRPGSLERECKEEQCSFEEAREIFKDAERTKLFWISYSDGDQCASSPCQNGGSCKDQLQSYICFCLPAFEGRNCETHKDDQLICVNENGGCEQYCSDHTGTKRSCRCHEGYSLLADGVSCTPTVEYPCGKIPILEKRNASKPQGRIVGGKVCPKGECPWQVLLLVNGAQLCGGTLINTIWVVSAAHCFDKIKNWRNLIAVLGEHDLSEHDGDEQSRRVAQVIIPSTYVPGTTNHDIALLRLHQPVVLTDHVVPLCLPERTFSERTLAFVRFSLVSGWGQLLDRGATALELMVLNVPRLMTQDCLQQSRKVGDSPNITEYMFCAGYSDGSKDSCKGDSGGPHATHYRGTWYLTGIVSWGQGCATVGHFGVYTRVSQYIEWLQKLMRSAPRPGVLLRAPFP
Described as above. On the procedure: as §1

A further assay has as its target T4, FVII(a) variant S119A (human, UniProt P08709 61-466).
T4 construct: hFVII alanine variant in cell culture supernatant
T4 sequence: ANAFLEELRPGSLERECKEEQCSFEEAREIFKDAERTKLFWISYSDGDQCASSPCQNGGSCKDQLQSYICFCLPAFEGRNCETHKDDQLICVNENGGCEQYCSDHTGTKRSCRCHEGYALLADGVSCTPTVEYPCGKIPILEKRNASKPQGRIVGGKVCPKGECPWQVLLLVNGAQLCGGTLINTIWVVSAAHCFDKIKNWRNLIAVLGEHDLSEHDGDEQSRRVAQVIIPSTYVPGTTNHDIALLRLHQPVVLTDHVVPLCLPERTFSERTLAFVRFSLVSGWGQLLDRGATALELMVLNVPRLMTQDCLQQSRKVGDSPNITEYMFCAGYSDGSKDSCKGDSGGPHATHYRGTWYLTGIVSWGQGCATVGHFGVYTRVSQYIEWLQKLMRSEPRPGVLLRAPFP
Described as above. On the procedure:
as §1

A further assay concerns the target T5, FVII(a) variant L120A (human, UniProt P08709 61-466).
T5 construct: hFVII alanine variant in cell culture supernatant
T5 sequence: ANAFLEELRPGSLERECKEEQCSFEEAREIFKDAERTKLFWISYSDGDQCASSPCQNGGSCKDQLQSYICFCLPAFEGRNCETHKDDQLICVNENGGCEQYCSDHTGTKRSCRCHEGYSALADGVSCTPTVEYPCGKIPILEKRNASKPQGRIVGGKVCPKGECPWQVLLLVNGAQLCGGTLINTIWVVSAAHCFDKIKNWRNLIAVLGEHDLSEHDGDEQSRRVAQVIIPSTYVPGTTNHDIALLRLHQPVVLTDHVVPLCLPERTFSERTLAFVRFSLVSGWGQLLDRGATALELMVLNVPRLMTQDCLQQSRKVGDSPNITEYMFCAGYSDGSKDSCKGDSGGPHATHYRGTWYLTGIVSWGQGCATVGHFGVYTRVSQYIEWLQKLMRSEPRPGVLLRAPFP
Described as above. On the procedure:
as §1

B1: mAb0842(OA) (antibody, human IgG4 S228P, kappa)
heavy: QVQLQESGPGLVKPSQTLSLTCTVSGYSISSDSAWSWIRQPPGKGLEWIGYIQYSGSTNYNPSLKSRVTISRDTSKNQFSLKLSSVTAADTAVYYCARSVNYYGNSFAVGYWGQGTLVTVSSASTKGPSVFPLAPCSRSTSESTAALGCLVKDYFPEPVTVSWNSGALTSGVHTFPAVLQSSGLYSLSSVVTVPSSSLGTKTYTCNVDHKPSNTKVDKRVESKYGPPCPPCPAPEFLGGPSVFLFPPKPKDTLMISRTPEVTCVVVDVSQEDPEVQFNWYVDGVEVHNAKTKPREEQFNSTYRVVSVLTVLHQDWLNGKEYKCKVSNKGLPSSIEKTISKAKGQPREPQVYTLPPSQEEMTKNQVSLSCAVKGFYPSDIAVEWESNGQPENNYKTTPPVLDSDGSFFLVSRLTVDKSRWQEGNVFSCSVMHEALHNHYTQKSLSLSLGK
light: EIVLTQSPATLSLSPGERATLSCRASQGISDYLHWYQQKPGEAPRLLIKYTSQPATGIPARFSGSGSGTDFTLTISSLEPEDFAVYYCQNGHSFPLTFGQGTKLEIKRTVAAPSVFIFPPSDEQLKSGTASVVCLLNNFYPREAKVQWKVDNALQSGNSQESVTEQDSKDSTYSLSSTLTLSKADYEKHKVYACEVTHQGLSSPVTKSFNRGEC
chain: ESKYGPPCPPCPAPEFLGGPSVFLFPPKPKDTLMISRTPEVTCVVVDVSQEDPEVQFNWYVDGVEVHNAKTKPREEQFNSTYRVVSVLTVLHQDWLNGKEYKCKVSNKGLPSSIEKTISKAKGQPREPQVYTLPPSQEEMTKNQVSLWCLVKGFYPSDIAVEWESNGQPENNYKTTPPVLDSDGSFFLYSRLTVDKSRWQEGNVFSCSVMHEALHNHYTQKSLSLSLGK
notes: also called monovalent humanized 11F2 antibody; one-armed anti-FVII(a) antibody
What is called Kd is a measure of binding affinity in units of concentration. Low values mean higher affinity, high ones lower affinity. Take B1: the Kd is 0.31 nM with FVII(a) WT; 0.98 nM in the assay with FVII(a) variant E265A; 0.79 nM in the assay with FVII(a) variant E394A; 0.31 nM with FVII(a) variant S119A; 0.6 nM in the assay with FVII(a) variant L120A.
